Experimental data: patent US20240409645A1 (DUALYX, published 2024)
Positions count from the first letter of the chain named. Each block holds one binder with its values, some of them ahead of it.

Key:
mouse IL-2Rα [1] = target: T1, mouse IL-2Rα (mouse, UniProt P01590 22-236, limits assumed); experiment: ELISA, P.E. on coated antigen
T1 construct: recombinant protein; also called mo IL-2R; mouse IL-2Ra
T1 sequence (looked up): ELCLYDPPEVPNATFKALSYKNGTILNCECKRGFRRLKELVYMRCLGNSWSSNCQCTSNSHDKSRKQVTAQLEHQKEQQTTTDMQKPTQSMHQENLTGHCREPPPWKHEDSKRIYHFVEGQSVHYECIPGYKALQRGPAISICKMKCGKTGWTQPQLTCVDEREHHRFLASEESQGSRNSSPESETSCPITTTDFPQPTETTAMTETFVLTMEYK
Summary of the method: (§1)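 Direct-coat ELISA: receptor protein o/n 4° C → 4% Marvel/PBS block 1 h → P.E. 1:5 in 1% Marvel/PBS, 1 h → OD450 vs neg. controls.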

human IL-2Rα [2] = target: T2, human IL-2Rα (human, UniProt P01589 22-240, limits assumed); experiment: ELISA, P.E. on coated antigen
T2 construct: recombinant protein; also called hu IL-2R; human IL-2Ra
T2 sequence: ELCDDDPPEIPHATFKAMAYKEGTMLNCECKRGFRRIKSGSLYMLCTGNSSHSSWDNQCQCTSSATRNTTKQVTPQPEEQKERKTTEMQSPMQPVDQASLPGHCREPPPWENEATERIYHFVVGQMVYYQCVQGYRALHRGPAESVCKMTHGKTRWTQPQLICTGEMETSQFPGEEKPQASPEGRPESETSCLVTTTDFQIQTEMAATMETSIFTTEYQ
Summary of the method: as §1

mouse IL-2Rα [3] = target: T1, mouse IL-2Rα; experiment: SPR, P.E. on immobilised antigen
Summary of the method: (§2)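 Immobilised receptor density: ~2500 RU (CM5, amine coupling). Analyte: VHH-containing P.E., 30 uL/min. Read-out: off-rate over 120s.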

human IL-2Rα [4] = target: T2, human IL-2Rα; experiment: SPR, P.E. on immobilised antigen
Summary of the method: as §2

[5] = target: T3, cynomolgus monkey IL-2Rβ/CD122 subunit (cynomolgus monkey, UniProt Q38J85 27-239, limits assumed); experiment: ELISA, bivalent; EC50 cyno vs human subunit
T3 construct: also called Cyno IL-2R subunit
T3 sequence (looked up): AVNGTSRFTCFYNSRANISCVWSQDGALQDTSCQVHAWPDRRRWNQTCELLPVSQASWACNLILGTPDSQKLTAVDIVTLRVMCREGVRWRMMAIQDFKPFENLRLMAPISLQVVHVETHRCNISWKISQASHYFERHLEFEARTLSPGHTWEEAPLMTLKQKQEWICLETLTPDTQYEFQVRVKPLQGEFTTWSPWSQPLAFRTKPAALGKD
Description: (§3) Monospecific monovalent and bivalent IL-2Rα-, IL-2Rβ- and IL-2Rγ-specific antibodies that were selected on human IL-2R subunits, were evaluated for their cross-reactivity in an ELISA. Human and cynomolgus monkey receptor subunits (Acrobiosystems, KactusBiosystems) were coated at 1 μg/mL in PBS (pH 7.4) in a Maxisorp plate (Nunc) and incubated overnight at 4° C. The plates were further washed with PBS-Tween pH 7.4 and incubated with 1% cascin/PBS-Tween blocking solution for 1 hour shaking at 400 rpm. Subsequently, the plate was washed three times with PBS-Tween pH 7.4, after which the test antibodies diluted in 0.1% casein/PBS-Tween were added to the plate and incubated for 1 hour. The plate was again washed three times, after which goat anti-human IgG Fc (HRP) detection antibody (abcam) was added to the plate and incubated for 30 min. The colouring reaction was performed with TMB (Sigma-Aldrich) and stopped with 0.5N H₂SO₄.
(§4) Absorbance was measured at 450 nm with the reference wavelength of 620 nm using spectrophotometer. Final analysis and graphic output were performed with GraphPad Prism version 8 (GraphPad Software). The dose-response binding curves were fit to a nonlinear regression model (log (agonist) vs. response with a variable slope (four parameters)).

[6] = target: T3, cynomolgus monkey IL-2Rβ/CD122 subunit; experiment: ELISA, bivalent VHH-hFc
Description: as §3, §4

[7] = target: T4, human interleukin-2 receptor β-chain (IL-2Rβ; CD122), recombinant protein (human, UniProt P14784 27-240); experiment: ELISA, bivalent VHH-hFc
T4 construct: also called human IL-2R subunit CD122
T4 sequence: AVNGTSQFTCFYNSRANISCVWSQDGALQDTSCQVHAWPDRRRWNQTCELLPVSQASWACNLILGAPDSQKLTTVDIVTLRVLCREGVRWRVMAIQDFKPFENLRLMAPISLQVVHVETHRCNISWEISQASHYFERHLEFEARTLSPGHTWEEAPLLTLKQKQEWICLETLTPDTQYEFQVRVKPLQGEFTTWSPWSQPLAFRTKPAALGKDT
Description: as §3, §4

OD (PE binding ELISA) (mouse IL-2Rα [1]): 0.057 OD450 nm
OD (PE binding ELISA) (human IL-2Rα [2]): 1.88 OD450 nm
koff (mouse IL-2Rα [3]): 0.00608 s⁻¹
koff (human IL-2Rα [4]): 0.00253 s⁻¹
B1: FJ1427_P035MP05B08 (VHH)
VHH: QLQLVESGGGLVQAGGSLRLSCVAHGLTFDGYAIGWFRQAPGKELEGVSYITGSDGSRYYADSVKGRFTISSDVAKNTVYLHMNNLKPDDAARYYCAVDRLGSRGAYVSAWWRSSDMDLWGKGTLVTVSS
notes: periplasmic extract; also called clone nr

OD (PE binding ELISA) (mouse IL-2Rα [1]): 0.936 OD450 nm
OD (PE binding ELISA) (human IL-2Rα [2]): 2.14 OD450 nm
koff (mouse IL-2Rα [3]): 0.000547 s⁻¹
koff (human IL-2Rα [4]): 0.000222 s⁻¹
B2: 12-MP05B12 (VHH)
VHH: QVQLVESGGGLVQAGGSLRLSCAASGFTFDGYAIGWFRQAPGKEREGVSYITGSDGSTYYADSVKGRFTISSNNAKNTVYLHMNSLKPDDAAVYYCAIDRLGSRGAYVPIWWRSSDMDLWGKGTLVTVSS
notes: periplasmic extract; also called FJ1427_P035MP05B12

Fold change [5]: 1.3 fold
EC50 [6]: 0.157 nM
EC50 [7]: 0.125 nM
B3: 23-MP06F03 VHH-hFc, monospecific bivalent (Fc fusion)
chain: QVQLVESGGGLVQAGGSLRLSCAVSGDVFVRYTMAWFRQAPGKEREFVASVTDSGRTTDYVHSVKGRFTVSRDNAKNTVYLQMNNLKPEDTAVYYCAANTDYFQIKSLDANTWGQGTQVTVSS
notes: IgG1 Fc LALA-PG; not shown: human IgG1 CH2 and CH3 domains (Fc)

Fold change [5]: 1.2 fold
EC50 [6]: 0.138 nM
EC50 [7]: 0.117 nM
B4: 26-MP06A07 VHH-hFc, monospecific bivalent (Fc fusion)
chain: B3 chain with V5Q, V24A, D59E, H62D, V79A, V93I, K106R, A110L
notes: as for B3

OD (PE binding ELISA) (mouse IL-2Rα [1]): 0.052 OD450 nm
OD (PE binding ELISA) (human IL-2Rα [2]): 1.86 OD450 nm
koff (mouse IL-2Rα [3]): 0.0172 s⁻¹
koff (human IL-2Rα [4]): 0.00341 s⁻¹
B5: FJ1427_P035MP05A05 (VHH)
VHH: QLQLVESGGGLVQAGGSLRLSCAASGLTFDGYAIGWFRQASGKEREGVSYINGRDGSTFYADSVKGRFIISSDNAKNTVDLQMNSLKPDDAAVYYCAVDRLGSRGAYVSTWWRPPDMDLWGKGTLVTVSP
notes: periplasmic extract; also called clone nr; 417

OD (PE binding ELISA) (mouse IL-2Rα [1]): 0.045 OD450 nm
OD (PE binding ELISA) (human IL-2Rα [2]): 1.91 OD450 nm
koff (mouse IL-2Rα [3]): 0.0122 s⁻¹
koff (human IL-2Rα [4]): 0.00224 s⁻¹
B6: FJ1427_P035MP05D04 (VHH)
VHH: B5 VHH with K87N, T110S, P114S, P130S
notes: as for B1

OD (PE binding ELISA) (mouse IL-2Rα [1]): 0.071 OD450 nm
OD (PE binding ELISA) (human IL-2Rα [2]): 2.43 OD450 nm
koff (mouse IL-2Rα [3]): 0.00311 s⁻¹
koff (human IL-2Rα [4]): 0.000659 s⁻¹
B7: FJ1427_P035MP05C06 (VHH)
VHH: B5 VHH with L2V, A61T, T110S, P114S, P130S
notes: as for B1

OD (PE binding ELISA) (mouse IL-2Rα [1]): 0.05 OD450 nm
OD (PE binding ELISA) (human IL-2Rα [2]): 2.17 OD450 nm
koff (mouse IL-2Rα [3]): 0.0129 s⁻¹
koff (human IL-2Rα [4]): 0.00278 s⁻¹
B8: FJ1427_P035MP05H08 (VHH)
VHH: B5 VHH with P114S, P130S
notes: as for B1

Fold change [5]: 4.3 fold
EC50 [6]: 0.895 nM
EC50 [7]: 0.209 nM
B9: 15-MP02E06 VHH-hFc, monospecific bivalent (Fc fusion)
chain: QVQLVESGGGSVQPGGSLRLSCAASGFTFSNYAMSWVRQAPGKGLEWVASITGFGRGTDYADSVKGRFTISRDNAEDTLYLQMNSLKPEDTAVYYCAKYSSSTYYPPTPARGRDYRGQGTQVTVSS
notes: IgG1 Fc LALA-PG; also called anti-IL-2Rβ Ab 15; not shown: human IgG1 CH2 and CH3 domains (Fc)

Fold change [5]: 1 fold
EC50 [6]: 0.122 nM
EC50 [7]: 0.124 nM
B10: 22-MP03F12 VHH-hFc, monospecific bivalent (Fc fusion)
chain: EVQLVESGGGLVQAGGSLRLSCAASGSIFSINAMAWFRQVPGMERELVAAISRDGGASVYRDSVKGRFTISRDNSKNTVYLQMNTLKPEDTAIYVCAATRAIGWTARWITTDFDFWGQGTQVTVSS
notes: as for B3
